Data as given in patent US20240016943.

Assays:
[1] = tested on: T1, B4-Z; experiment: EMSA; conditions: apparent; Table 14 gives 25 (conflict)
T1 sequence 1: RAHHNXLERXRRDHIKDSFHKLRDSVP
T1 sequence 2: XRAQILCKATEYIQYXRRK

[2] = tested on: B11-ZM4; experiment: EMSA
[3] = target: BLI1-Z (UniProt P61244); experiment: EMSA; conditions: apparent; Table 14 gives 12
[4] = tested on: T2, B8-Z4; experiment: EMSA
T2 sequence 1: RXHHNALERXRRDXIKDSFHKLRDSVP
T2 sequence 2: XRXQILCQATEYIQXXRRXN

[5] = target: STR118 (B11-Z8) (UniProt P61244); experiment: EMSA; conditions: 95% CI 3.0-4.0; B11-Z8 4.2 in Table 14
[6] = tested on: T3, B1-Z1; experiment: EMSA
T3 sequence 1: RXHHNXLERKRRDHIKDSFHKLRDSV
T3 sequence 2: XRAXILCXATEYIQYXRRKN

[7] = tested on: T4, B5-Z4; experiment: EMSA; conditions: 95% CI 98-126; Table 14 gives 118
T4 sequence 1: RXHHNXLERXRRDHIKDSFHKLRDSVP
T4 sequence 2: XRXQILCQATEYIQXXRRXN

[8] = tested on: T5, B2-Z; experiment: EMSA; conditions: apparent; Table 14 gives 15
T5 sequence 1: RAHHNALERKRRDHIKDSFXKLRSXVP
T5 sequence 2: XRAQILCKATEYIQYXRRK

[9] = tested on: T6, B1-Z2 helical tetramer; experiment: EMSA
T6 sequence 1: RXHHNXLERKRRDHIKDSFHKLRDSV
T6 sequence 2: XAQILCKATEYIQXMRRXN

[10] = target: B-ZM3 (UniProt P61244+P61244); experiment: EMSA; conditions: 25 nM sDBD
[11] = target: B11-Z80 (STR1180) (UniProt P61244); experiment: EMSA; conditions: method inferred
[12] = target: BLI1-ZM4 (UniProt P61244); experiment: EMSA
[13] = target: B-ZL1 (UniProt P61244+P61244); experiment: EMSA; conditions: listed as B-ZLI1; Table 14 gives 19
[14] = target: B-ZM4 (UniProt P61244); experiment: EMSA
[15] = tested on: T7, B1-Z2; experiment: EMSA; conditions: 95% CI 22-29
T7 sequence 1: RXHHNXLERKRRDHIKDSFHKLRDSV
T7 sequence 2: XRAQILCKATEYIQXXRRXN

[16] = target: B-Z (MAX-derived STR, cross-dimer) (UniProt P61244); experiment: EMSA; conditions: 95% CI 13-19; also 16 in Tables 12, 14; 20 mM HEPES pH 8.0, 150 mM NaCl, 2 mM MgCl2
[17] = target: BMADs-Z (UniProt P61244); experiment: EMSA; conditions: 25 nM sDBD; listed twice, second value 82% (possibly BMAD-Z)
[18] = tested on: T8, B8-Z; experiment: EMSA; conditions: apparent; Table 14 gives 672 (conflict)
T8 sequence 1: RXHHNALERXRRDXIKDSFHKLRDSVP
T8 sequence 2: XRAQILCKATEYIQYXRRK

[19] = tested on: T9, B2-Z2; experiment: EMSA
T9 sequence 1: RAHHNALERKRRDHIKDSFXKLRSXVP
T9 sequence 2: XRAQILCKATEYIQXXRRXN

[20] = tested on: T10, B1 (stapled MAX basic helix alone); experiment: EMSA; conditions: stapled basic helix alone
T10 sequence: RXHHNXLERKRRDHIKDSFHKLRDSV

[21] = tested on: T11, B7-Z4; experiment: EMSA
T11 sequence 1: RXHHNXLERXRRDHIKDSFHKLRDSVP
T11 sequence 2: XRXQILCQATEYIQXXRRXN

[22] = tested on: T12, B1-Z4; experiment: EMSA; conditions: 95% CI 37-43
T12 sequence 1: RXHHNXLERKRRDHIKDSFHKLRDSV
T12 sequence 2: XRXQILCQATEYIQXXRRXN

[23] = target: B (MAX basic helix alone) (UniProt P61244); experiment: EMSA; conditions: basic helix alone
[24] = target: B11-Z10 (UniProt P61244); experiment: EMSA; conditions: method inferred
[25] = tested on: T13, B2-Z4; experiment: EMSA
T13 sequence 1: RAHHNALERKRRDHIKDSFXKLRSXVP
T13 sequence 2: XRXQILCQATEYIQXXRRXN

[26] = target: BLI2-ZL1 (UniProt P61244); experiment: EMSA; conditions: 500 nM sDBD
[27] = tested on: T14, B12-Z6; experiment: EMSA
T14 sequence 1: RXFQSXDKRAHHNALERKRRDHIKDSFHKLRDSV
T14 sequence 2: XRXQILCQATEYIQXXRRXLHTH

[28] = target: BLI1-ZM5 (UniProt P61244); experiment: EMSA
[29] = tested on: T15, B3-Z; experiment: EMSA; conditions: apparent; Table 14 gives 76
T15 sequence 1: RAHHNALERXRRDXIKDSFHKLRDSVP
T15 sequence 2: XRAQILCKATEYIQYXRRK

[30] = target: B10-Z6 (UniProt P61244); experiment: EMSA
[31] = target: B11-Z81 (UniProt P61244); experiment: EMSA; conditions: method inferred
[32] = tested on: T16, B6-Z4; experiment: EMSA; conditions: 95% CI 49-66
T16 sequence 1: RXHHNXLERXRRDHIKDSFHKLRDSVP
T16 sequence 2: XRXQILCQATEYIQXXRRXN

[33] = target: B-Z5 (C-terminally truncated zipper) (UniProt P61244); experiment: EMSA; conditions: apparent; Table 14 gives 88
[34] = target: T17, BLI1-ZL1 (UniProt P61244+P61244); experiment: EMSA; conditions: 95% CI 14-35; Table 14 gives 19
[35] = tested on: BLI2-Z; experiment: EMSA; conditions: 500 nM sDBD
[36] = target: B-Z1 (UniProt P61244); experiment: EMSA; conditions: apparent; Table 14 gives 45
[37] = target: B11-Z70 (UniProt P61244); experiment: EMSA; conditions: method inferred
[38] = target: B-Z4 (UniProt P61244); experiment: EMSA; conditions: apparent; Table 14 gives 14
[39] = target: B11s-Z8 (UniProt P61244); experiment: EMSA; conditions: method inferred
[40] = tested on: T18, B7-Z; experiment: EMSA; conditions: apparent; Table 14 gives 173
T18 sequence 1: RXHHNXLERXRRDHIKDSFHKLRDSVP
T18 sequence 2: XRAQILCKATEYIQYXRRK

[41] = target: STR116 (B11-Z6) (UniProt P61244); experiment: EMSA; conditions: 95% CI 13-16; B11-Z6 14 in Table 14
[42] = target: B11-Z4 (UniProt P61244); experiment: EMSA; conditions: 95% CI 16-20; Table 14 gives 38
[43] = target: BMYCs-Z (UniProt P61244); experiment: EMSA; conditions: 25 nM sDBD; listed twice, second value 19% (possibly BMYC-Z)
[44] = target: B-Z2 (UniProt P61244); experiment: EMSA; conditions: apparent; Table 14 gives 22
[45] = target: B-Z3 (UniProt P61244); experiment: EMSA; conditions: apparent; Table 14 gives 15
[46] = target: B-Z helical tetramer (UniProt P61244+P61244); experiment: EMSA
[47] = tested on: T19, B1-Z; experiment: EMSA; conditions: apparent; Table 14 gives 17
T19 sequence 1: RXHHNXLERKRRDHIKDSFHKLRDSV
T19 sequence 2: XRAQILCKATEYIQYXRRK

[48] = target: B11-Z7 (UniProt P61244); experiment: EMSA
[49] = target: BLI1s-Z (UniProt P61244); experiment: EMSA; conditions: 25 nM sDBD
[50] = tested on: B11-ZM4; experiment: competition; conditions: vs MAX
[51] = target: BLI1-Z (UniProt P61244); experiment: competition; conditions: vs MAX; 50% at 500 nM in Table 16
[52] = target: STR118 (B11-Z8) (UniProt P61244); experiment: competition; conditions: vs MAX/MAX 30 nM; Table 15 gives 79 for B11-Z8; vs MYC/MAX 170 nM
[53] = tested on: T6, B1-Z2 helical tetramer; experiment: competition; conditions: helical tetramer vs MAX
[54] = target: BLI1-ZM4 (UniProt P61244); experiment: competition; conditions: vs MAX
[55] = target: B-ZM4 (UniProt P61244); experiment: competition; conditions: MAX competition at 500 nM
[56] = target: BMADs-Z (UniProt P61244); experiment: competition; conditions: MAX competition at 500 nM
[57] = tested on: T14, B12-Z6; experiment: competition; conditions: vs MAX
[58] = target: B10-Z6 (UniProt P61244); experiment: competition; conditions: vs MAX
[59] = target: T17, BLI1-ZL1; experiment: competition; conditions: vs MAX
[60] = target: BMAD-Z (UniProt P61244); experiment: competition; conditions: MAX competition at 500 nM
[61] = tested on: BLI2-Z; experiment: competition; conditions: MAX competition at 500 nM
[62] = target: STR116 (B11-Z6) (UniProt P61244); experiment: competition; conditions: vs MAX/MAX 30 nM; Table 15 gives 65 for B11-Z6 (conflict); vs MYC/MAX 1.0 uM
[63] = target: BMYC-Z (UniProt P61244); experiment: competition; conditions: MAX competition at 500 nM
[64] = target: B11-Z4 (UniProt P61244); experiment: competition; conditions: vs MAX
[65] = target: BMYCs-Z (UniProt P61244); experiment: competition; conditions: MAX competition at 500 nM
[66] = target: BLI1s-Z (UniProt P61244); experiment: competition; conditions: MAX competition at 500 nM

E-box probe gave a Kd [1] of 239 nM, a Kd [2] of 21 nM and a Kd [3] of 8.3 nM. It also gave a Kd [4] of 164 nM, a Kd [5] of 3.5 nM and a Kd [6] of 49 nM. For the same substance, the Kd [7] was 111 nM, the Kd [8] was 19 nM and the Kd [9] was 1.8 nM. For the same substance, the binding signal [10] was 53 % bound, the Kd [11] was 2.7 nM and the Kd [12] was 10 nM. The Kd [13] was 20 nM, the Kd [14] was 8 nM and the Kd [15] was 26 nM. For the same substance, the Kd [16] was 16 nM, the binding signal [17] was 63 % bound and the Kd [18] was 66 nM. The Kd [19] was 18 nM, the Kd [20] was > 2000 nM and the Kd [21] was 234 nM. The Kd [22] was 40 nM, the Kd [23] was > 2000 nM and the Kd [24] was 4.8 nM. For the same substance, the Kd [25] was 15 nM, the binding signal [26] was 54 % bound and the Kd [27] was 8 nM. For the same substance, the Kd [28] was 2.8 nM, the Kd [29] was 77 nM and the Kd [30] was 16 nM. The Kd [31] was > 100 nM, the Kd [32] was 57 nM and the Kd [33] was 98 nM. For the same substance, the Kd [34] was 25 nM, the binding signal [35] was 72 % bound and the Kd [36] was 58 nM. It also gave a Kd [37] of 11 nM, a Kd [38] of 20 nM and a Kd [39] of 6.5 nM. It also gave a Kd [40] of 169 nM, a Kd [41] of 14 nM and a Kd [42] of 18 nM. It also gave a binding signal [43] of 27 % bound, a Kd [44] of 22 nM and a Kd [45] of 18 nM. The Kd [46] was 2 nM, the Kd [47] was 18 nM and the Kd [48] was 22 nM. It also gave a binding signal [49] of 50 % bound, an IC50 [50] of 560 nM and an IC50 [51] of 905 nM. For the same substance, the IC50 [52] was 61 nM, the IC50 [53] was 1100 nM and the IC50 [54] was 560 nM. The activity [55] was 41%, the activity [56] was 24% and the IC50 [57] was 62 nM. It also gave an IC50 [58] of 326 nM, an IC50 [59] of 935 nM and an activity [60] of 66%. It also gave an activity [61] of 16%, an IC50 [62] of 400 nM and an activity [63] of 9%. The IC50 [64] was 496 nM, the activity [65] was 7% and the activity [66] was 22%.
